Consider 19 molecules from patent US20250352661A1 (MYTHIC THERAPEUTICS, published 2025).

T1: Human LRRC15 Protein, His Tag (Acro Biosystems) (human, UniProt Q8TF66 22-538, limits assumed)
T1 construct: Bought protein with His tag
T1 sequence (looked up): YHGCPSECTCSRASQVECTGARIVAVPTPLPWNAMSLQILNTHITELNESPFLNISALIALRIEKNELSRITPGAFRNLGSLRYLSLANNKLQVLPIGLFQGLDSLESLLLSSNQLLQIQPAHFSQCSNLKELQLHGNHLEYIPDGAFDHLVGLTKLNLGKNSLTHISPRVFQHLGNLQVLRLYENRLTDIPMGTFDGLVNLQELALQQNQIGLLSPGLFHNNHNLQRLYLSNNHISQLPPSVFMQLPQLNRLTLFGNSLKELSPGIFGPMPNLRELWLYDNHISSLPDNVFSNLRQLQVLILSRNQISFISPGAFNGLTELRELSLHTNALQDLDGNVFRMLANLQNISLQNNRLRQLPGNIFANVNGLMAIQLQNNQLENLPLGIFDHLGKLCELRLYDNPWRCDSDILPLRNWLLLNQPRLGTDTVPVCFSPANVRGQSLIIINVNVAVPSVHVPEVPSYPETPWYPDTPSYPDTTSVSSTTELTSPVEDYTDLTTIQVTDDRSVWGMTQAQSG

B1: MYT7888 (antibody, V domains shown)
VH: QQQLVESGGGLVKPGASLTLTCKASGFSFSGSHWICWVRQAPGKGLEWIGCINGGSLDITYYASWAKGRFTISKASSTTVTLQKTSLTAADTATYFCASDTSYTAYGNFYFNLWGPGTLVTVSS
VL: AQVLTQTASPVSAAVGGTVTINCQSSQSVLNNNWLAWYQQKPGQPPKLLIYDASSLASGVPSRFKGSGSGTQFTLTISDLESDDAATYYCQGEFSCGSADCNAFGGGTEVVVKG
notes: rabbit 24D9 VH Y33H; chimeric, human constant regions
B2: MYT7897 (antibody, V domains shown)
VH: QQQLVESGGGLVKPGASLTLTCKASGFSFSGSYWICWVRQAPGKGLEWIGCINGGHLDITYYASWAKGRFTISKASSTTVTLQKTSLTAADTATYFCASDTSYTAYGNFYFNLWGPGTLVTVSS
VL: AQVLTQTASPVSAAVGGTVTINCQSSQSVLNNNWLAWYQQKPGQPPKLLIYDASSLASGVPSRFKGSGSGTQFTLTISDLESDDAATYYCQGEFSCGSADCNAFGGGTEVVVKG
notes: rabbit 24D9 VH S56H; chimeric, human constant regions
B3: MYT7905 (antibody, V domains shown)
VH: QQQLVESGGGLVKPGASLTLTCKASGFSFSGSYWICWVRQAPGKGLEWIGCINGGSLDITYYAHWAKGRFTISKASSTTVTLQKTSLTAADTATYFCASDTSYTAYGNFYFNLWGPGTLVTVSS
VL: AQVLTQTASPVSAAVGGTVTINCQSSQSVLNNNWLAWYQQKPGQPPKLLIYDASSLASGVPSRFKGSGSGTQFTLTISDLESDDAATYYCQGEFSCGSADCNAFGGGTEVVVKG
notes: rabbit 24D9 VH S64H; chimeric, human constant regions
B4: MYT7904 (antibody, V domains shown)
VH: QQQLVESGGGLVKPGASLTLTCKASGFSFSGSYWICWVRQAPGKGLEWIGCINGGSLDITYYHSWAKGRFTISKASSTTVTLQKTSLTAADTATYFCASDTSYTAYGNFYFNLWGPGTLVTVSS
VL: AQVLTQTASPVSAAVGGTVTINCQSSQSVLNNNWLAWYQQKPGQPPKLLIYDASSLASGVPSRFKGSGSGTQFTLTISDLESDDAATYYCQGEFSCGSADCNAFGGGTEVVVKG
notes: rabbit 24D9 VH A63H; chimeric, human constant regions
B5: MYT7902 (antibody, V domains shown)
VH: QQQLVESGGGLVKPGASLTLTCKASGFSFSGSYWICWVRQAPGKGLEWIGCINGGSLDITHYASWAKGRFTISKASSTTVTLQKTSLTAADTATYFCASDTSYTAYGNFYFNLWGPGTLVTVSS
VL: AQVLTQTASPVSAAVGGTVTINCQSSQSVLNNNWLAWYQQKPGQPPKLLIYDASSLASGVPSRFKGSGSGTQFTLTISDLESDDAATYYCQGEFSCGSADCNAFGGGTEVVVKG
notes: rabbit 24D9 VH Y61H; chimeric, human constant regions
B6: MYT7892 (antibody, V domains shown)
VH: QQQLVESGGGLVKPGASLTLTCKASGFSFSGSYWISWVRQAPGKGLEWIGHINGGSLDITYYASWAKGRFTISKASSTTVTLQKTSLTAADTATYFCASDTSYTAYGNFYFNLWGPGTLVTVSS
VL: AQVLTQTASPVSAAVGGTVTINCQSSQSVLNNNWLAWYQQKPGQPPKLLIYDASSLASGVPSRFKGSGSGTQFTLTISDLESDDAATYYCQGEFSCGSADCNAFGGGTEVVVKG
notes: rabbit 24D9 VH C51H; chimeric, human constant regions
B7: MYT7895 (antibody, V domains shown)
VH: QQQLVESGGGLVKPGASLTLTCKASGFSFSGSYWICWVRQAPGKGLEWIGCINHGSLDITYYASWAKGRFTISKASSTTVTLQKTSLTAADTATYFCASDTSYTAYGNFYFNLWGPGTLVTVSS
VL: AQVLTQTASPVSAAVGGTVTINCQSSQSVLNNNWLAWYQQKPGQPPKLLIYDASSLASGVPSRFKGSGSGTQFTLTISDLESDDAATYYCQGEFSCGSADCNAFGGGTEVVVKG
notes: rabbit 24D9 VH G54H; chimeric, human constant regions
B8: MYT7901 (antibody, V domains shown)
VH: QQQLVESGGGLVKPGASLTLTCKASGFSFSGSYWICWVRQAPGKGLEWIGCINGGSLDIHYYASWAKGRFTISKASSTTVTLQKTSLTAADTATYFCASDTSYTAYGNFYFNLWGPGTLVTVSS
VL: AQVLTQTASPVSAAVGGTVTINCQSSQSVLNNNWLAWYQQKPGQPPKLLIYDASSLASGVPSRFKGSGSGTQFTLTISDLESDDAATYYCQGEFSCGSADCNAFGGGTEVVVKG
notes: rabbit 24D9 VH T60H; chimeric, human constant regions
B9: MYT7893 (antibody, V domains shown)
VH: QQQLVESGGGLVKPGASLTLTCKASGFSFSGSYWICWVRQAPGKGLEWIGCHNGGSLDITYYASWAKGRFTISKASSTTVTLQKTSLTAADTATYFCASDTSYTAYGNFYFNLWGPGTLVTVSS
VL: AQVLTQTASPVSAAVGGTVTINCQSSQSVLNNNWLAWYQQKPGQPPKLLIYDASSLASGVPSRFKGSGSGTQFTLTISDLESDDAATYYCQGEFSCGSADCNAFGGGTEVVVKG
notes: rabbit 24D9 VH I52H; chimeric, human constant regions
B10: MYT7894 (antibody, V domains shown)
VH: QQQLVESGGGLVKPGASLTLTCKASGFSFSGSYWICWVRQAPGKGLEWIGCIHGGSLDITYYASWAKGRFTISKASSTTVTLQKTSLTAADTATYFCASDTSYTAYGNFYFNLWGPGTLVTVSS
VL: AQVLTQTASPVSAAVGGTVTINCQSSQSVLNNNWLAWYQQKPGQPPKLLIYDASSLASGVPSRFKGSGSGTQFTLTISDLESDDAATYYCQGEFSCGSADCNAFGGGTEVVVKG
notes: rabbit 24D9 VH N53H; chimeric, human constant regions
B11: MYT7899 (antibody, V domains shown)
VH: QQQLVESGGGLVKPGASLTLTCKASGFSFSGSYWICWVRQAPGKGLEWIGCINGGSLHITYYASWAKGRFTISKASSTTVTLQKTSLTAADTATYFCASDTSYTAYGNFYFNLWGPGTLVTVSS
VL: AQVLTQTASPVSAAVGGTVTINCQSSQSVLNNNWLAWYQQKPGQPPKLLIYDASSLASGVPSRFKGSGSGTQFTLTISDLESDDAATYYCQGEFSCGSADCNAFGGGTEVVVKG
notes: rabbit 24D9 VH D58H; chimeric, human constant regions
B12: MYT7903 (antibody, V domains shown)
VH: QQQLVESGGGLVKPGASLTLTCKASGFSFSGSYWICWVRQAPGKGLEWIGCINGGSLDITYHASWAKGRFTISKASSTTVTLQKTSLTAADTATYFCASDTSYTAYGNFYFNLWGPGTLVTVSS
VL: AQVLTQTASPVSAAVGGTVTINCQSSQSVLNNNWLAWYQQKPGQPPKLLIYDASSLASGVPSRFKGSGSGTQFTLTISDLESDDAATYYCQGEFSCGSADCNAFGGGTEVVVKG
notes: rabbit 24D9 VH Y62H; chimeric, human constant regions
B13: MYT7891 (antibody, V domains shown)
VH: QQQLVESGGGLVKPGASLTLTCKASGFSFSGSYWIHWVRQAPGKGLEWIGSINGGSLDITYYASWAKGRFTISKASSTTVTLQKTSLTAADTATYFCASDTSYTAYGNFYFNLWGPGTLVTVSS
VL: AQVLTQTASPVSAAVGGTVTINCQSSQSVLNNNWLAWYQQKPGQPPKLLIYDASSLASGVPSRFKGSGSGTQFTLTISDLESDDAATYYCQGEFSCGSADCNAFGGGTEVVVKG
notes: rabbit 24D9 VH C36H; chimeric, human constant regions
B14: MYT7898 (antibody, V domains shown)
VH: QQQLVESGGGLVKPGASLTLTCKASGFSFSGSYWICWVRQAPGKGLEWIGCINGGSHDITYYASWAKGRFTISKASSTTVTLQKTSLTAADTATYFCASDTSYTAYGNFYFNLWGPGTLVTVSS
VL: AQVLTQTASPVSAAVGGTVTINCQSSQSVLNNNWLAWYQQKPGQPPKLLIYDASSLASGVPSRFKGSGSGTQFTLTISDLESDDAATYYCQGEFSCGSADCNAFGGGTEVVVKG
notes: rabbit 24D9 VH L57H; chimeric, human constant regions
B15: MYT7889 (antibody, V domains shown)
VH: QQQLVESGGGLVKPGASLTLTCKASGFSFSGSYHICWVRQAPGKGLEWIGCINGGSLDITYYASWAKGRFTISKASSTTVTLQKTSLTAADTATYFCASDTSYTAYGNFYFNLWGPGTLVTVSS
VL: AQVLTQTASPVSAAVGGTVTINCQSSQSVLNNNWLAWYQQKPGQPPKLLIYDASSLASGVPSRFKGSGSGTQFTLTISDLESDDAATYYCQGEFSCGSADCNAFGGGTEVVVKG
notes: rabbit 24D9 VH W34H; chimeric, human constant regions
B16: MYT7890 (antibody, V domains shown)
VH: QQQLVESGGGLVKPGASLTLTCKASGFSFSGSYWHCWVRQAPGKGLEWIGCINGGSLDITYYASWAKGRFTISKASSTTVTLQKTSLTAADTATYFCASDTSYTAYGNFYFNLWGPGTLVTVSS
VL: AQVLTQTASPVSAAVGGTVTINCQSSQSVLNNNWLAWYQQKPGQPPKLLIYDASSLASGVPSRFKGSGSGTQFTLTISDLESDDAATYYCQGEFSCGSADCNAFGGGTEVVVKG
notes: rabbit 24D9 VH I35H; chimeric, human constant regions
B17: MYT7906 (antibody, V domains shown)
VH: QQQLVESGGGLVKPGASLTLTCKASGFSFSGSYWICWVRQAPGKGLEWIGCINGGSLDITYYASHAKGRFTISKASSTTVTLQKTSLTAADTATYFCASDTSYTAYGNFYFNLWGPGTLVTVSS
VL: AQVLTQTASPVSAAVGGTVTINCQSSQSVLNNNWLAWYQQKPGQPPKLLIYDASSLASGVPSRFKGSGSGTQFTLTISDLESDDAATYYCQGEFSCGSADCNAFGGGTEVVVKG
notes: rabbit 24D9 VH W65H; chimeric, human constant regions
B18: MYT7896 (antibody, V domains shown)
VH: QQQLVESGGGLVKPGASLTLTCKASGFSFSGSYWICWVRQAPGKGLEWIGCINGHSLDITYYASWAKGRFTISKASSTTVTLQKTSLTAADTATYFCASDTSYTAYGNFYFNLWGPGTLVTVSS
VL: AQVLTQTASPVSAAVGGTVTINCQSSQSVLNNNWLAWYQQKPGQPPKLLIYDASSLASGVPSRFKGSGSGTQFTLTISDLESDDAATYYCQGEFSCGSADCNAFGGGTEVVVKG
notes: rabbit 24D9 VH G55H; chimeric, human constant regions
B19: MYT7900 (antibody, V domains shown)
VH: QQQLVESGGGLVKPGASLTLTCKASGFSFSGSYWICWVRQAPGKGLEWIGCINGGSLDHTYYASWAKGRFTISKASSTTVTLQKTSLTAADTATYFCASDTSYTAYGNFYFNLWGPGTLVTVSS
VL: AQVLTQTASPVSAAVGGTVTINCQSSQSVLNNNWLAWYQQKPGQPPKLLIYDASSLASGVPSRFKGSGSGTQFTLTISDLESDDAATYYCQGEFSCGSADCNAFGGGTEVVVKG
notes: rabbit 24D9 VH I59H; chimeric, human constant regions

This assay addresses T1, Human LRRC15 Protein, His Tag (Acro …). The assay can be described thus: BLI; dissociation pH 7.4 black, pH 5.4 grey [1/2); D00013 FIG. 2B (1/2].
B1: the binding result was “binds”.

Regarding B2, the binding result was “binds”. With B3, the binding result is on record as “binds”. The entry for B4 is “binds”; for B5 it is “binds”; for B6 it is “binds”.

Take B7: the binding result is given as “binds”. The entry for B8 is “binds”.

As to B9, the binding result was “binds”. With B10, the binding result is “binds”. Regarding B11, the binding result was “binds”. The entry for B12 is “binds”. With B13, the binding result is “binds”. In the case of B14, the binding result is “binds”. Next, B15: “binds”; B16: “binds”; B17: “binds”. Next, B18: “binds”; B19: “binds”.
